US20020146805

How the values were obtained:
[1] = biological target: T1, Meo-Suc-Ala-Ala-Pro-Val-pNA
T1 chain: AAPV

H-D-Lys(CBO)-Pro-Arg-pNA = biological target: T2, H-D-Lys(CBO)-Pro-Arg-pNA
T2 chain: KPR

Suc-Ala-Ala-Pro-Phe-pNA = biological target: T3, Suc-Ala-Ala-Pro-Phe-pNA
T3 chain: AAPF

H-D-Pro-HHT-Arg-pNA = biological target: T4, H-D-Pro-HHT-Arg-pNA
T4 chain: PXR

B1: PFEK-protease T-6xHIS zymogen (protein)
chain: MDSKGSSQKSRLLLLLVVSNLLLCQGVVSDYKDDDDVDAAALAAPFDDDDKIVGGYALEEGEWPWQVSIQRNGSHFCGGSLIAEQWVLTAAHCFRNTSETSLYQVLLGARQLVQPGPHAMYARVRQVESNPLYQGTASSADVALVELEAPVPFTNYILPVCLPDPSVIFETGMNCWVTGWGSPSEEDLLPEPRILQKLAVPIIDTPKCNLLYSKDTEFGYQPKTIKNDMLCAGFEEGKKDACKGDSGGPLVCLVGQSWLQAGVISWGEGCARQNRPGVYIRVTAHHNWIHRIIPKLQFQPARLGGQKSRHHHHHH
Question: What does the source list for B1?
Answer: chromogenic amidolytic activity [1]: No measurable chromogenic amidolytic activity was detected; chromogenic amidolytic activity (H-D-Lys(CBO)-Pro-Arg-pNA): No measurable chromogenic amidolytic activity was detected; chromogenic amidolytic activity (Suc-Ala-Ala-Pro-Phe-pNA): No measurable chromogenic amidolytic activity was detected; chromogenic amidolytic activity (H-D-Pro-HHT-Arg-pNA): No measurable chromogenic amidolytic activity was detected

B2: activated protease T-6xHIS (protein)
chain: B1 chain
Question: How did the Specific Activity (amidolytic, release of pNA) (nmole pNA produced/min/ug protein) (H-D-Lys(CBO)-Pro-Arg-pNA) turn out when B2 was run?
Answer: 0.057

Question: What about the Specific Activity (amidolytic, release of pNA) (nmole pNA produced/min/ug protein) (H-D-Pro-HHT-Arg-pNA) of the same protein?
Answer: 0.01
